The values that follow come from US9617326B2, “RTRAIL mutant and monomethyl auristatin E conjugate thereof” (Zhejiang University, priority 2012, dated 2017).

Where two headings read alike, the source gives them in different places.

The subject of series [1] is NCI-H460 tumor-bearing mice. The following applies: athymic mice with NCI-H460 tumor; for distribution of fluorescence in mice: about 50 μg Cy5-labeled conjugate via tail vein. On the procedure:
N109C-vcMMAE was taken as an example, and the conjugate was tracked in real-time in mice by Fluorescent labeling method to observe tumor targeting ability of the conjugate.
Athymic mice weighing 20 g were selected and 10^7 NCI-H460 cells were injected subcutaneously in the armpit of one side of the forelegs.
Cy5, as a Near-IR-activated dye, was used as a fluorescent label, so as to facilitate the fluorescence to pass through animal skin and achieve the goal of real time vital observation. In terms of concrete method of Cy5 labeling, please refer to the instruction offered by the manufacturer (Lumiprobe).
200 μL sample containing about 50 μg Cy5-labeled conjugate was injected into the tumor-bearing mice via tail vein, while equal amount of normal saline was injected into the blank control group.
Small living animal imager (NightOWLN320) was used to observe distribution of fluorescence in mice every 24 hours. […] The mice were killed after 4th day, and heart, liver, spleen, lung, kidney and tumor tissues were isolated. […] The white arrow indicates tumor site.

For another series, the system named is Hela cells. The series can be described thus: In vitro anti-tumor activity (CCK-8 killing) on Hela cells. The class given is cell-based. The following applies: Hela (TRAIL insensitive type), 32-1000 ng/mL, both low and high concentrations, 96 hours, FIG. 6. An excerpt:
(§1) 4 types of cells were selected to measure in vitro anti-tumor activity of the rTRAIL mutant and the MMAE conjugate: TRAIL sensitive type (NCI-H460), TRAIL insensitive type (Hela), TRAIL resistant type (MCF-7) and normal cells (HEK293). All of these 4 types of cells had TRAIL death receptor on their surfaces.
(§2) Hereinafter, TRAIL sensitive type NCI-H460 cell was taken as an example to give detailed description of the test procedure, including the following steps:
(§3) (1) Digesting the NCI-H460 cells into individual cells, followed by diluting to 1×10^4 cells/mL, spreading the cells on 96-well plate (100 μL for each well), and culturing the cells for 24 hours under normal condition.
(§4) (2) Diluting N109C, N109C-vcMMAE and S96C-vcMMAE with culture medium respectively, and adding them into the cell plate with final concentrations of 32, 63, 125, 250, 500, 1000 ng/mL for serving as the test groups, while using standard TRAIL (114-281) as the positive control group, using the buffer (used for dissolving the test sample, diluted with the culture medium in a same manner) as the negative control group, and using the culture medium (without adding any solution) as the blank control group. All the control groups and test groups were tested in triplicate. […]

The test system of another series is NCI-H460 cells. In words: Cell endocytosis of the conjugate by tumor cells (laser confocal). Type of series: cell-based. The following applies: 1 μg/mL. On the procedure: NCI-H460 cells were taken as an example to observe behaviors of rTRAIL mutant-vcMMAE conjugate in tumor cells by laser confocal technology, including the following steps:
a) A coverslip was immersed with 1M HCl and 70% ethanol, subjected to ultrasonic treatment for 30 min, washed for 5-6 times with double distilled water and sterilized for later use;
b) Well-sterilized coverslip was placed in 24-well plate, and cells were plated at 10^4 cells/well and cultured overnight at 37° C.;
c) Administration: N109C-vcMMAE and S96C-vcMMAE were diluted respectively to a final concentration of 1 μg/mL, and the cells were treated according to step d) at different time points (1st, 4th, 8th and 12th hour), while drug-free culture medium was used for the blank control group; d) The coverslip was washed with cold PBS for 3 times and then fixed with 4% paraformaldehyde for 10 min at room temperature; e) PBS was used to wash the coverslip for another 3 times; f) 0.1% Triton X-100 was added to permeabilize for 10 min at room temperature; g) 2% BSA was added to block for 30 min after 3 times washing with PBS; h) Primary antibody incubation: rabbit anti-human rTRAIL polyclonal antibody was diluted with 1% BSA/PBS to 1 μg/mL and incubated for 45 min at room temperature; i) Secondary antibody incubation: FITC-labeled goat anti-rabbit secondary antibody was diluted 500-fold with 1% BSA/PBS and incubated for 45 min at room temperature; j) Staining cell nucleus with DAPI: after PBS washing (3 times), DAPI diluted 1000-fold with PBS was added dropwise on each coverslip (it was appropriate to just cover the cells), and the coverslip was incubated for about 2 min at 25° C.; k) Mounting: after PBS washing, one drop of Anti-fade Fluorescence Mounting Medium was added on the coverslip, then the coverslip was placed upside down on a glass slide and then sealed with nail polish around the coverslip; l) Cofocal detection: the detection result was shown in FIG. 8.

A further series concerns MCF-7 cells. The series can be described thus: In vitro anti-tumor activity (CCK-8 killing) on MCF-7 cells. Type of series: cell-based. The following applies: MCF-7 (TRAIL resistant type), 32-1000 ng/mL, both low and high concentrations, 96 hours, FIG. 6.
From the text: as §1, §2, §3, §4

B1: N109C-vcMMAE: rTRAIL N109C mutant trimer coupled via maleimide-modified valine-citrulline linker to 1-3 MMAE molecules (conjugate)
chain: TSEETISTVQEKQQCISPLVRERGPQRVAAHITGTRGRSNTLSSPNSKNEKALGRKINSWESSRSGHSFLSNLHLRNGELVIHEKGFYYIYSQTYFRFQEEIKENTKNDKQMVQYIYKYTSYPDPILLMKSARNSCWSKDAEYGLYSIYQGGIFELKENDRIFVSVTNEHLIDMDHEASFFGAFLVG
modifications: non-natural residues
notes: rTRAIL N109C mutant trimer coupled via maleimide-modified valine-citrulline linker to 1-3 MMAE molecules
B1: the “distribution of fluorescence in mice” value is given as “most of the fluorescence had gathered on tumor site” in series [1] (3rd day) and “only the tumor site emitted fluorescence” in series [1] (4th day). Moreover, the tumor-targeting effect entry in series [1] (in vivo imaging over 4 days and isolated tissues) is recorded as “excellent tumor-targeting effect”. Moreover, the killing ability entry in the series on Hela cells and in the series on MCF-7 cells was “stronger killing ability than S96C-vcMMAE” in each case. The “endocytosis by tumor cells (confocal)” value in the series with NCI-H460 cells (1 hour after administration) was “a lot of N109C-vcMMAE had entered the cells”; in the series with NCI-H460 cells (4 hours), “more and more N109C-vcMMAE entered the cells and began to aggregate slowly”; with NCI-H460 cells (8 hours), “more aggregating points emerging inside the cells”. In the series with NCI-H460 cells (12 hours), the “endocytosis by tumor cells and apoptosis (confocal)” value was “aggregating points inside the cells decreased gradually and cell apoptosis began to occur”.
